Series [1] deals with His-NHR (Streptomyces actuosus, UniProt P52391 1-274). Nature of the series: fluorescence anisotropy; 5 mM Mg2+; Anisotropy: 25 mM HEPES-KOH pH 7.5, 25 mM NH4Cl, 5 mM MgCl2, 5 mM DTT, 2.5 uM RNA, 0-8 uM NHR, temperature not stated; EMSA: 25 mM HEPES-KOH pH 8.0, 25 mM NH4Cl, 5 mM MgCl2, 5 mM DTT, 4 C, 1 h, 6-10 uM RNA. The note with it: protein: recombinant, tags: N-terminal His6 (pET-28a), chain copies: 2. (In fluorescence polarisation assays a small probe gives low polarisation when free and higher when bound to something large.)

The target of series [2] is HA-His-NHR-R135A (His-NHR-M) (Streptomyces actuosus, UniProt P52391 1-274, R135A). Nature of the series: EMSA; 5 mM Mg2+; R135A homodimer, less efficient than heterodimer; Anisotropy: 25 mM HEPES-KOH pH 7.5, 25 mM NH4Cl, 5 mM MgCl2, 5 mM DTT, 2.5 uM RNA, 0-8 uM NHR, temperature not stated; EMSA: 25 mM HEPES-KOH pH 8.0, 25 mM NH4Cl, 5 mM MgCl2, 5 mM DTT, 4 C, 1 h, 6-10 uM RNA. The note with it: protein: recombinant; tags: HA, N-terminal His6; chain copies: 2; label: 3' fluorescein (anisotropy); none (EMSA, SYBR Gold); hairpin. On the technique in general: Mobility shift assays separate free from complexed probe on a gel.

The target in series [3] is HA-His-NHR-R135A subunit of heterodimer;Flag-Trx-NHR subunit of heterodimer (Streptomyces actuosus;Streptomyces …, UniProt P52391;P52391 1-274;1-274, R135A|). Kind of series: EMSA; 5 mM Mg2+; WT/R135A heterodimer, more efficient than R135A homodimer; Anisotropy: 25 mM HEPES-KOH pH 7.5, 25 mM NH4Cl, 5 mM MgCl2, 5 mM DTT, 2.5 uM RNA, 0-8 uM NHR, temperature not stated; EMSA: 25 mM HEPES-KOH pH 8.0, 25 mM NH4Cl, 5 mM MgCl2, 5 mM DTT, 4 C, 1 h, 6-10 uM RNA. To be noted: protein: recombinant;recombinant, tags: HA, N-terminal His6;Flag, thioredoxin, copies: 1;1, label: 3' fluorescein (anisotropy), none (EMSA, SYBR Gold), hairpin.

The mark [4] stands for this setting: label: 3' fluorescein, folded single strand.

Changes are numbered by the printed parent chain. In names and notes the source's numbering stands.

In general, Kd refers to the concentration at which binding is half-saturated. In the case of GGAUGUUGGCUUCGAAGCAGCCAUCAUUU (structured_RNA) [29 nt RNA A1067C], the equilibrium dissociation constant (Kd) in series [1] (label: 3' fluorescein, hairpin) amounted to 460 ± 40 nM.

Take GGAUGUUGGCUUUGAAGCAGCCAUCAUUU (structured_RNA) [29 nt RNA A1067U]: the Kd in series [1] (label: 3' fluorescein, hairpin) amounted to 630 ± 80 nM.

On to GGAUGUUGGCUUGGAAGCAGCCAUCAUUU (structured_RNA) [29 nt RNA A1067G], for which, in series [1] (label: 3' fluorescein, hairpin), the equilibrium dissociation constant (Kd) came out at 370 ± 30 nM.

Consider GGAUGUUGGCUUAGAAGCAGCCAUCAUUU (structured_RNA) [29 nt RNA wt A1067], for which the binding result in series [2] and in series [3] was “binds” each time. Besides, the Kd in series [1] (label: 3' fluorescein (anisotropy), none (EMSA, SYBR Gold), hairpin) is 370 ± 30 nM.

B1: 58 nt RNA A1067G (structured_RNA)
RNA: GGCCAGGAUGUUGGCUUGGAAGCAGCCAUCAUUUAAAGAAAGCGUAAUAGCUCACUGGCU
For the molecule B1, the dissociation constant Kd in series [1] (setting [4]) was determined as 770 ± 20 nM.

B2: 58 nt RNA A1067C (structured_RNA)
RNA: B1 RNA with G18C
For the molecule B2, in series [1] (setting [4]), the Kd stood at 800 ± 20 nM.

B3: 58 nt RNA A1067U (structured_RNA)
RNA: B1 RNA with G18U
Turning to B3, in series [1] (setting [4]), the Kd was determined as 910 ± 20 nM.
